Consider six substances from patent publication US20230398228A1, “ERIBULIN-BASED ANTIBODY-DRUG CONJUGATES AND METHODS OF USE” (EISAI R&D MANAGEMENT CO., LTD., priority 2016, published 2023).

Data set [1] has as its target Recombinant human folate receptor alpha (Homo sapiens, UniProt P15328). The data set is described as follows: ELISA, folate receptor alpha. The format is binding. The following applies: MORAb-003 and its ADCs. As to the method:
(§1) Coating solution was discarded and the plates were washed three times using 1×PBS with 0.05% Tween-20 (PBST) buffer. Plates were blocked in 300 μL blocking buffer (1% BSA in PBST) at room temperature for 2 hours on an orbital shaker. […] Blocking buffer was discarded and 100 μL/well of diluted antibody was added to the plates. Plates were incubated at room temperature for 2 hours on an orbital shaker. Antibody solution was discarded and plates were washed three times using PBST. 100 μL/well of goat-anti-human IgG (H+L)-HRP (1:10,000 dilution in blocking buffer) solution was added to the plates, and plates were incubated at room temperature for 1 hour on an orbital shaker. Secondary antibody solution was discarded and plates were washed three times using PBST. 100 μL/well of QuantaBlu fluorogenic peroxidase substrate working solution (Thermo, Cat No. 15169) was added to the plates, and plates were incubated at room temperature for 30 min. Fluorescence was read at excitation 325 nm/emission 420 nm using a SpectraMax M5 (Molecular Devices). Data was analyzed using SoftMaxPro 5.4.2 software with 4-parameter fitting.

In another data set the test system is NCI-H2110 cells. The data set is described as follows: Crystal Violet cytotoxicity assay (Example 4), NCI-H2110. The format is cell-based, human. The following applies: mean of replicate experiments, read-out: Cytotoxicity IC50 (nM), NCI-H2110 (FR^med, MSLN^med). As to the method:
(§2) Test reagents were serial diluted 1:3 in 2 mL deep-well dilution plates, starting at 200 nM (10 dilutions total). […] Medium was then discarded. […] Plates were read at 570 nm. Data was analyzed using GraphPad Prism 6.

A further data set deals with A431 cells. The data set is described as follows: Crystal Violet cytotoxicity assay (Example 4), A431 (parental). The format is cell-based, human. The following applies: mean of replicate experiments, read-out: Cytotoxicity IC50 (nM), A431 (FR^neg, MSLN^neg). As to the method:
Test reagents were serial diluted 1:3 in 2 mL deep-well dilution plates, starting at 200 nM (10 dilutions total). […] Medium was then discarded. […] Plates were read at 570 nm. Data was analyzed using GraphPad Prism 6. […]
MAL-PEG2-Val-Cit-PAB-eribulin (ER-001159569) was conjugated to eight different anti-human mesothelin antibodies (Table 1). Binding affinities of the parental antibodies were determined by BIAcore analysis, as described above in section 1.6.1. Aggregation levels for all anti-human mesothelin ADCs were determined by SEC-HPLC and the DAR was analyzed using HIC-HPLC. In vitro potency was evaluated using a Crystal Violet cell-based cytotoxicity assay in A3 (A431 stabily transfected with human mesothelin (MSLN), MSLN^hi), OVCAR3 (human ovarian, MSLN^hi), HEC-251 (human endometroid, MSLN^med), H226 (human lung squamous cell mesothelioma, MSLN^lo), and A431 parental (MSLN^neg) cells.

Another data set relates to IGROV1 cells. The data set is described as follows: Crystal Violet cytotoxicity assay (Example 4), IGROV1. The format is cell-based, human. As to conditions: mean of replicate experiments, read-out: Cytotoxicity IC50 (nM), IGROV1 (FR^hi, MSLN^neg). As to the method:
as §2

Data set [2] is described as follows: SEC-HPLC aggregation analysis. The format is physicochemical. As for the experimental part: The antibody aggregation was analyzed by size-exclusion, high-performance liquid chromatography (SEC-HPLC) using an Agilent 1100. The mAb was diluted to 1 mg/mL in DPBS. The antibody (20 μL) was injected onto a TSKgel® SuperSW guard column (4.6 mm×3.5 cm, 4 μm pore size, Tosoh Bioscience), followed by a TSKgel® SuperSW3000 column (4.6 mm×30 cm, 4 μm pore size), eluted from the column with 0.1 M sodium phosphate containing 0.15 M NaCl and 0.05% NaN3, at pH 7.4, at a flow rate of 0.3 mL/min for 20 min. All data were analyzed using Agilent ChemStation software. Percent aggregation was calculated as [PAaggregate/PAtotal]*100, where PA=integrated peak area.
ADC was diluted to 1 mg/mL in DPBS. ADC (10 μL) was then injected onto an Advanced SEC 300A guard column (4.6 mm×3.5 cm, 2.7 μm pore size, Agilent), followed by a AdvancedBio 300A column (4.6 mm×30 cm, 2.7 μm pore size). ADC was eluted from the column with 0.1 M sodium phosphate containing 0.15 M NaCl and 5% IPA, pH 7.4 at a flow rate of 0.25 mL/min for 28 min. All data were analyzed using Agilent ChemStation software. Percent aggregation was calculated as [PAaggregate/PAtotal]*100, where PA=integrated peak area.

For a further data set, the target named is human mesothelin (Homo sapiens, UniProt Q13421). The data set is described as follows: ELISA, mesothelin. The format is binding. As to conditions: MORAb-009 and its ADCs. As to the method:
as §1, with “Recombinant human mesothelin was diluted to 1 μg/mL in coating buffer (50 mM carbonate-bicarbonate buffer, pH 9.6), and coated onto 96-well Maxisorp black plates (Thermo, Cat No. 43711, 100 μL/well) at 4° C., overnight. Coating” for “Coating”

The nature of data set [3]: DAR analysis by LC-MS (UPLC/ESI-MS, reverse-phase LC-MS). As to conditions: reverse-phase LC-MS. As for the experimental part: ADCs were deglycosylated using PNGase F (New England BioLabs). G7 buffer (10 μL) and PNGase F (2 μL) were added to the mAb (90 μL, 1 mg/mL in DPBS). The reaction was incubated in a Discover microwave (CEM) for 2 cycles: (1) microwave power 10 W, 37° C., 10 min, followed by a 5-min pause; (2) microwave power 2 W, 37° C., 10 min. A portion of the sample was reduced by adding DTT to a final concentration of 20 mM, followed by incubation at 60° C. for 3 min. Samples were then analyzed using a Waters Acquity Ultra Performance Liquid Chromatography (UPLC) and quadrupole time of flight (Q-Tof) Premier mass spectrometer. Samples (0.5-2 μg each) were injected onto a MassPrep™ micro desalting column at 65° C., eluted from the column with a 5 min equilibration in 95% of mobile phase A, a 10 min gradient (5-90% B), and a 10 min re-equilibration in 95% of mobile phase A, at 0.05 mL/min. Mobile phase A was 0.1% formic acid in water. Mobile phase B was 0.1% formic acid in acetonitrile. The Q-Tof mass spectrometer was run in positive ion, V-mode with detection in the range of 500-4000 m/z. The source parameters were as follows: capillary voltage, 2.25 kV (intact antibody)-2.50 kV (reduced antibody); sampling cone voltage, 65.0 V (intact antibody) or 50.0 V (reduced antibody); source temperature, 100° C.; desolvation temperature, 250° C.; desolvation gas flow, 550 L/hr. The protein peak was deconvoluted using the MassLynx® MaxEnt 1 function. Relative intensities of each unconjugated, singly-conjugated, and multiply-conjugated heavy and light chain masses were combined to calculate the overall DAR using the formula:
2[[ILC+1+2(ILC+2)+3(ILC+3)+ . . . n(ILC+n)]/ΣILCtot]+2[[IHC+1+2(IHC+2)+3(IHC+3)+ . . . n(IHC+n)]/ΣIHCtot]
where ILC+1 is mass intensity of light chain conjugated with one cytotoxin, ILC+2 is mass intensity of light chain conjugated with two cytotoxins, etc. IHC are the intensities from the corresponding conjugated heavy chains, and ΣILCtot and ΣIHCtot are the combined intensities of all unconjugated and conjugated light chains and heavy chains, respectively.
DAR was also analyzed using an LC-MS method with a Waters Alliance HPLC with SQD/PDA detection. Samples were injected onto a Proteomix RP-1000 column ([…], 1000A, 4.6 mm×15 cm, Sepax) at 65° C., and eluted with a 3 min equilibration in 25% B, a 27 min linear gradient from 25%-55% B, a 5 min hold at 55% B, a 1 min change to 90% B, a 5 min hold at 90% B, a 1 min change back to 25% B, and a 5 min reequilibration at 25% B. Mobile phase A was 0.1% TFA in water, and mobile phase B was 0.1% TFA in acetonitrile. The elute was then split (10:1) into PDA and SQD detectors. The SQD detector was set up as ES positive, capillary voltage at 3.2 kV, cone voltage at 40 V, extractor at 3 V, and RF lens at 0.2 V, source temperature at 150° C., and desolvation temperature at 250° C. Mass data was acquired at 200-2000 m/z for 40 min, continuum mode, scan time 1 second. Data was analyzed and deconvoluted offline using MassLynx and MaxEnt1. DAR was calculated using the formula:
2[[AUCLC+1+2(AUCLC+2)+3(AUCLC+3)+ . . . n(AUCLC+n)]/[…]]+2[[AUCHC+1+2(AUCHC+2)+3(AUCHC+3)+ . . . n(AUCHC+n)]/ΣAUCHCtot]
where AUCLC+1 is the area under the curve of the light chain peak conjugated with one cytotoxin, AUCLC+2 is the area under the curve of the light chain peak conjugated with two cytotoxins, etc. AUCHC is the area under the curve of the corresponding heavy chains, and ΣAUCLCtot and ΣAUCHCtot are the combined area under the curve of all unconjugated and conjugated light chains and heavy chains, respectively.

Chain of Recombinant human folate receptor alpha (P15328 25-234): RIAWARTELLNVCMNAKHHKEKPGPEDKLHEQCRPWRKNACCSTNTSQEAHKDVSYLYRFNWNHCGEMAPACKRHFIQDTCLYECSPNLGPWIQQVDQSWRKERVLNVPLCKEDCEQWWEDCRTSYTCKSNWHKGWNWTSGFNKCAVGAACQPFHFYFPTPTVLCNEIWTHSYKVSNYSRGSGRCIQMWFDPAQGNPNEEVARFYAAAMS

Consider MORAb003-DBCO-PEG2 eribulin, for which the “Antigen Binding ELISA, EC50” value in data set [1] is recorded as 19.10 ng/mL. In addition, the IC50 in the data set on NCI-H2110 cells is 38.1 nM; with A431 cells, above 100 nM; with IGROV1 cells, 4.25 nM.

On to MORAb003-DBCO-PEG4 VCP eribulin, for which, in data set [1], the “Antigen Binding ELISA, EC50” value came to 16.00 ng/mL. Also, the IC50 with NCI-H2110 cells was 4.28 nM; in the data set with A431 cells, above 100 nM; in the data set on IGROV1 cells, 0.038 nM.

On to MORAb003-DBCO-PEG4 eribulin, for which the “Antigen Binding ELISA, EC50” value in data set [1] came to 13.30 ng/mL. Further, the IC50 in the data set with NCI-H2110 cells is 46.3 nM; in the data set on A431 cells it was above 100 nM; with IGROV1 cells it was 1.32 nM.

Turning to MORAb003-PEG2-eribulin, the “Antigen Binding ELISA, EC50” value in data set [1] worked out at 6.96 ng/mL. Also, the IC50 is 38.3 nM with NCI-H2110 cells, above 100 nM with A431 cells and 0.33 nM with IGROV1 cells.

As for MORAb003-PEG4-eribulin, the “Antigen Binding ELISA, EC50” value in data set [1] is 9.31 ng/mL. Also, the “SEC-HPLC Analysis % Frag.” value in data set [2] amounted to 0%. The “SEC-HPLC Analysis % Monomer” value in data set [2] was found to be 89.76%. The IC50 was 21.6 nM with NCI-H2110 cells, above 100 nM with A431 cells and 0.277 nM in the data set on IGROV1 cells.

Regarding MORAb009-DBCO-PEG4 eribulin, the “SEC-HPLC Analysis % Aggr.” value in data set [2] was 1.12%. Moreover, in data set [2], the “SEC-HPLC Analysis % Frag.” value is 0%. Moreover, the “SEC-HPLC Analysis % Monomer” value in data set [2] was found to be 98.88%. For the same substance, the “Antigen Binding ELISA, EC50” value in the data set with human mesothelin came out at 45.20 ng/mL. Besides, the EC50 in the data set with human mesothelin (read-out: Antigen Binding ELISA, EC50) came to 0.3 nM. For the same substance, the results for the IC50 in the data set with NCI-H2110 cells, in the data set with A431 cells and in the data set with IGROV1 cells were 39.3 nM, above 100 nM and 61.5 nM, respectively. Moreover, the “DAR (LC-MS)” value in data set [3] is 2.8.
